# Measurements as given in patent US20250340649A1 (RUTGERS THE STATE UNIVERSITY OF NEW JERSEY, published 2025).
# Positions count from the first letter of the chain named.
# B1: E5C1 BiKE (BiKE: HER2/CD16a) (bispecific antibody)
# chain: QVQLQESGGGLVQAGGSLRLDCAASGRTLSSYVVGWFRQAPGKEREVVAAIGWSRTSTFYTDSVKGRFTISRDNTENTVYLQMNSLKPGDTAVYYCAADSSPRRWDRESDFGSWGQGTQVTVSSPSGQAGAAASESLFVSNHASQVQLQESGGGLVQAGGSLRLSCAASGRTFRLYRMGWFRQAPGKEREFVGSIKMIDGSTLYGDPVKGRFTISRDNTKFMAYLQMNSLKPEDTAVYYCASVSRVTGSYDSWGQGTQVTVSSWELQGSEQKLISEEDLHHHHHHHHHHHH
# notes: Monomer by LC-MS; also called BIKE: CD16a/HER2
# B2: C9 (VHH)
# VHH: QVQLQESGGGLVQAGGSLRLSCAASGRTVSRYSMGWFRQAPGKEREFVAAIAWFGGWPYYADSVKGRFTISRDNAKNTVYLQMNSLKPEDTAVYYCAARQWARTWDYWGQGTQVTVSS
# notes: also called C9 anti-HER2 VHH
# B3: F4 anti-HER2 VHH (VHH)
# VHH: QVQLQESGGGLVQAGGSLKLSCAASGRTLSAYVVGWFRQAPGKERESVAAIGWSSRSPYYPDSVKGRFTISEDNTKNTVYLQMNSLKPDDTAVYYCAADSYPRRWDRESDFGSWGQGTQVTVSS
# B4: D6 anti-HER2 VHH (VHH)
# VHH: B3 VHH with K19T, L29F, A31T, S54A, R56N, P61A, E72R, N84K
# B5: E9 anti-HER2 VHH (VHH)
# VHH: B3 VHH with L11S, K43R, S55T, R56H, P58V, P61A, E72R, K76E, Y101S
# B6: F2 anti-HER2 VHH (VHH)
# VHH: B3 VHH with K43R, S55T, R56H, P58V, P61A, E72R, K76E, Y101S
# B7: H7 anti-HER2 VHH (VHH)
# VHH: B3 VHH with K19R, R27H, A31T, G35A, S55T, P61A
# B8: A3 (VHH)
# VHH: QVQLQESGGGLVQAGGSLRISCAASGRTSDLFPVGWFRQAPGKEREIVAAIRWSGGVIGYGDPVKGRFTISTDNAKNTVYLQMNSLKPEDTAVYYCAAGPRESTVTWNYWGQGTHVTVSS
# notes: not the anti-CD16a clone A3; also called A3 anti-HER2 VHH
# What was measured:
# [1] = target: T1, HER2 on the surface of HER2+ cancer cells (BT474, SKOV-3) (human, UniProt P04626 23-1255); experiment: flow cytometry, SKOV-3 (HER2+) cells, tenfold dilutions 0.001-1000 nM
# T1 construct: whole, on cells; also called human epidermal growth factor receptor 2
# [2] = target: T2, Biotinylated Human Fc gamma RIIIB/CD16b (NA1) Protein, His, Avitag (Acrobiosystems CDB-H82E4) (human, UniProt O75015 17-200, biotinylated (Avitag)); experiment: BLI (Octet), biotinylated CD16b-NA1 on streptavidin sensor, BiKE 1.875-60 nM
# T2 construct: NA1 allele; also called CD16b-NAI
# T2 sequence (O75015 other isoform, or with tags, fused parts or gaps limits assumed): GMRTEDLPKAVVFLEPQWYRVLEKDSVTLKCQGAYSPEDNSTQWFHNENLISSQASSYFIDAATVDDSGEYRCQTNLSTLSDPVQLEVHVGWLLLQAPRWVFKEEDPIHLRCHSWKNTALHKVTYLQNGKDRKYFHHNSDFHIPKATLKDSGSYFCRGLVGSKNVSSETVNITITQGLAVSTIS
# Procedure: (§1) An Octet® Streptavidin (SA) Biosensor was soaked for at least 10 min in DPBS supplemented with 0.1% Casein, biotinylated CD16a, CD16b-NA1, CD16b-NA2, and HER2 antigens were loaded onto the streptavidin (SA) biosensor until 1 nm shift was reached. Next, the sensor was dipped into the washing buffer (DPBS+0.05% Tween 20+0.1% Casein) for 2 min to reach the baseline. […] Then, in the dissociation step, sensors were dipped into the washing buffer for 5 min to acquire data (Table 5). The data were then analyzed using Octet Data Analysis HT 11.1 software. The sensorgrams were subtracted from the reference and fitted into 1:1 binding model for data analysis. Finally, the affinity and kinetics were analyzed using “Association and Dissociation”.
# [3] = target: T3, Biotinylated Human Fc gamma RIIIA/CD16a (F176) Protein, Avitag, His Tag (Acrobiosystems CDA-H82E8) (human, UniProt P08637 17-208, biotinylated (Avitag)); experiment: ELISA, biotinylated CD16a on streptavidin plate, tenfold dilutions 0-1000 nM, anti-cMyc-HRP
# T3 construct: also called biotinylated CD16a; CD16a antigen
# T3 sequence (P08637 17-208 limits assumed): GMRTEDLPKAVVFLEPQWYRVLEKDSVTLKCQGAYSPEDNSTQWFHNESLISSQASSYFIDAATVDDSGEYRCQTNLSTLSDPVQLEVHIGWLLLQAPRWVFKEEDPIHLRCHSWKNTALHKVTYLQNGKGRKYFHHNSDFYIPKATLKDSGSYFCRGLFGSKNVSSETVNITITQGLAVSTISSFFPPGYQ
# Procedure: For ELISA, 50 μL of biotinylated CD16a was added to the streptavidin-coated plate and incubated for 45 min at RT. […] Next, 100 μl anti-cMyc tag HRP conjugated secondary antibody (1:10,000 dilutions) was added. Finally, after washing, the substrate was added for color development, and the plate was read using OD of 450 nm.
# [4] = target: T4, Biotinylated Human Her2/ErbB2 Protein, His, Avitag (AcroBiosystem HE2-H82E2) (human, UniProt P04626 23-652, biotinylated (Avitag)); experiment: ELISA on HER2, tenfold dilutions 0-1000 nM; the HER2 form is not stated for this ELISA, Table 17 lists only the biotinylated HER2
# T4 construct: Bought protein; Loaded on streptavidin sensors for BLI; also called biotinylated HER2; HER2 antigen
# [5] = target: T5, CD16a on NK92 (CD16+) cells (human, UniProt P08637 17-254); experiment: flow cytometry, fixed haNK92 (CD16+) cells, tenfold dilutions, anti-histag-FITC
# T5 construct: whole, on cells; also called NK92 cells (CD16a+); haNK92 cells (CD16a+)
# T5 sequence (P08637 17-254 F176V): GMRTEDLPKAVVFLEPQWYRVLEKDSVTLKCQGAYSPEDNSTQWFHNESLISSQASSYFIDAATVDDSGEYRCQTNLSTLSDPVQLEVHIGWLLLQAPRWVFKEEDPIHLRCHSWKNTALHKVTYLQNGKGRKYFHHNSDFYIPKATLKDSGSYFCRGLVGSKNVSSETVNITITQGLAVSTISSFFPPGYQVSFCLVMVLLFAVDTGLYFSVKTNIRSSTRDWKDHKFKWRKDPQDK
# Procedure: First, CD16a+NK92 was harvested and washed once using Dulbecco's phosphate-buffered saline (DPBS) supplemented with 2% FBS (2% DPBS-FBS). Next, all the cells were fixed using 3.7% paraformaldehyde for 20 min at RT, followed by washing twice. […] Following washing three times, the secondary antibody, anti-Histag antibody FITC labeled, was added. After washing, the samples were run on Cytoflex using FL1 channel.
# [6] = target: T6, Biotinylated Human Fc gamma RIIIB/CD16b (NA2) Protein, His, Avitag (Acrobiosystems CDB-H82Ea) (human, UniProt O75015 17-200, biotinylated (Avitag)); experiment: BLI (Octet), biotinylated CD16b-NA2 on streptavidin sensor, BiKE 1.875-60 nM
# T6 construct: NA2 allele; also called CD16-NA2
# T6 sequence (O75015 17-200 N65S limits assumed): as the sequence (O75015 other isoform, or with tags, fused parts or gaps limits assumed) above, with R20S, N49S, D66N, V90I counted along it
# Procedure: as §1
# [7] = target: T3, Biotinylated Human Fc gamma RIIIA/CD16a …; experiment: BLI (Octet), biotinylated CD16a on streptavidin sensor, BiKE 1.875-60 nM
# Procedure: as §1
# [8] = target: T7, HER3 (human, UniProt P21860 20-643, limits assumed); experiment: ELISA, periplasmic extract on coated antigen, anti-HA-HRP
# T7 construct: also called Recombinant Human ErbB 3 protein, Abcam ab196072
# From the text: (§2) FIGS. 4A-4B. FIG. 4A) PBMCs were isolated using Ficoll-Paque method. Then, the RNAs were extracted, cDNA library was generated, genes amplified, and then cloned into pMECS-GG phagemids. The phagemids were used in phage display and the screened candidates were used to infect TG1 bacteria. Colonies were selected, grown, lysed, and the lysates removed. FIG. 4B) The lysates were then used in ELISA to screen for VHHs with the highest affinity to HER2 and with negligible binding to HER1, HER3, and HER4. Bovine serum albumin (BSA) and skim milk were used as controls.
# (§3) The next day, each well was washed three times with washing buffer (DPBS+0.1% Tween 20) and then incubated with blocking buffer (2% skimmed milk) for 2 h at RT to block the free binding sites. Next, blocking buffer was replaced with 100 μL of periplasmic extract from above and incubated for 1 h at RT while shaking at 700 rpm. Each well was washed six times with washing buffer (DPBS+0.1% Tween 20) followed by addition of 100 μL HRP Anti-HA tag antibody (1:10000 dilution) and incubation for 1 h at RT while shaking at 700 rpm. Each well was washed again six times, followed by addition of 50 μL 1-Step™ Turbo TMB-ELISA substrate solution at incubation at RT for 15 min (without shaking and at dark). The reaction was stopped by adding 50 μL of stop solution ([…] sulfuric acid) and the plate was read at 450 nm using 630 nm as a reference (450/630 nm).
# [9] = target: T8, HER2 protein (coated on ELISA plate) (human, UniProt P04626 23-652, limits assumed); experiment: as above
# T8 construct: also called HER2 antigen
# From the text: as §2, §3
# [10] = target: T9, HER1 (human, UniProt P00533 25-645); experiment: as above
# T9 construct: The text says only 'HER1'; also called Recombinant human EGFR protein (Fc Chimera), Abcam ab155726; Fc part of the bought chimera not given
# From the text: as §2, §3
# [11] = target: T10, Bovine serum albumin (bovine, UniProt P02769 25-607); experiment: as above
# T10 construct: Control antigen; also called BSA
# T10 sequence (P02769 25-607 limits assumed): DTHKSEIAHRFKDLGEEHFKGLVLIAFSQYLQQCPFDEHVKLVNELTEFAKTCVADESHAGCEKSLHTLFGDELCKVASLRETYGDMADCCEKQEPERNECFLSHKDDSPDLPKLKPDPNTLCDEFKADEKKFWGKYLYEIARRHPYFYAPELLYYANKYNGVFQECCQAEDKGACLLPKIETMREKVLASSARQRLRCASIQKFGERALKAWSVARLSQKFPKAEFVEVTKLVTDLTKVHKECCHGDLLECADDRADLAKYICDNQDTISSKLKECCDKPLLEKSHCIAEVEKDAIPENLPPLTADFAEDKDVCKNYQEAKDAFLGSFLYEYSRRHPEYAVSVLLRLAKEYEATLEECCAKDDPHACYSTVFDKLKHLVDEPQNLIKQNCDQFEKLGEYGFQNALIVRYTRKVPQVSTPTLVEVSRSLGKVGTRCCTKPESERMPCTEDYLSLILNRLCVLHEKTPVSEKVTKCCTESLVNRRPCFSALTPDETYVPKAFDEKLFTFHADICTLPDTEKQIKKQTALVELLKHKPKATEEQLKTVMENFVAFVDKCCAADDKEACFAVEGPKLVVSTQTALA
# From the text: as §2, §3
# [12] = target: T1, HER2 on the surface of HER2+ cancer …; experiment: flow cytometry on BT-474 cells (HER2+), 100 nM binding sites
# Procedure: (§4) OVASC-1 is an ascites-derived epithelial ovarian cancer cells obtained from a patient with advanced metastatic disease (11, 12). The expressed VHHs were then incubated with HER2⁺ (BT474, JIMT-1, and SKOV-3) and HER2⁻ (MDA-MB-231) cancer cell lines. Approximately 10⁶ cells were counted and washed using DPBS-1% FBS. […] After washing, FITC-conjugated anti-Human IgG or anti-Histag antibody were added and incubated on ice for 60 min. Cells were washed three times and then analyzed using Beckman-Coulter Gallios flow cytometer at Rutgers Flow cytometry core facility.
# (§5) In the next step, the ability of the VHHs to recognize and bind to HER2 on the surface of HER2+ cancer cells was evaluated. […] MDA-MB-231 and OVASC-1 (HER2⁻) cancer cells were used as negative controls.
# [13] = target: T1, HER2 on the surface of HER2+ cancer …; experiment: flow cytometry on SKOV-3 cells (HER2+), 100 nM binding sites
# Procedure: as §4, §5
binder,measurement,setting,value
B1,EC50 (read off the curve),[1],~1 nM
same,Kd,[2],1730 nM
same,koff,[2],0.0743 s⁻¹
same,kon,[2],42900 M⁻¹ s⁻¹
same,EC50 (read off the curve),[3],~0.3 nM
same,EC50 (read off the curve),[4],~0.4 nM
same,EC50 (read off the curve),[5],~1 nM
same,Kd,[6],6.71 nM
same,koff,[6],0.000946 s⁻¹
same,kon,[6],140000 M⁻¹ s⁻¹
same,Kd,[7],2.7 nM
same,koff,[7],0.00051 s⁻¹
same,kon,[7],189000 M⁻¹ s⁻¹
B2,binding result,[8],"no binding (tested: extract, conc. not given)"
same,binding result,[9],binds
same,binding result,[10],"no binding (tested: extract, conc. not given)"
same,binding result,[11],"no binding (tested: extract, conc. not given)"
B3,FITC+ (%),[12],98.5%
same,FITC- (%),[12],1.45%
same,Mean (MFI),[12],99500
same,FITC+ (%),[13],93.3%
same,FITC- (%),[13],6.51%
same,Mean (MFI),[13],86400
same,binding result,[8],"no binding (tested: extract, conc. not given)"
same,binding result,[10],"no binding (tested: extract, conc. not given)"
same,binding result,[11],"no binding (tested: extract, conc. not given)"
B4,FITC+ (%),[12],98.1%
same,FITC- (%),[12],1.86%
same,Mean (MFI),[12],96100
same,FITC+ (%),[13],94.6%
same,FITC- (%),[13],5.24%
same,Mean (MFI),[13],89400
same,binding result,[8],"no binding (tested: extract, conc. not given)"
same,binding result,[10],"no binding (tested: extract, conc. not given)"
same,binding result,[11],"no binding (tested: extract, conc. not given)"
B5,FITC+ (%),[12],98.2%
same,FITC- (%),[12],1.85%
same,Mean (MFI),[12],97900
same,FITC+ (%),[13],93.1%
same,FITC- (%),[13],6.76%
same,Mean (MFI),[13],88100
same,binding result,[8],"no binding (tested: extract, conc. not given)"
same,binding result,[10],"no binding (tested: extract, conc. not given)"
same,binding result,[11],"no binding (tested: extract, conc. not given)"
B6,FITC+ (%),[12],98.6%
same,FITC- (%),[12],1.42%
same,Mean (MFI),[12],99500
same,FITC+ (%),[13],93.1%
same,FITC- (%),[13],6.68%
same,Mean (MFI),[13],100000
same,binding result,[8],"no binding (tested: extract, conc. not given)"
same,binding result,[10],"no binding (tested: extract, conc. not given)"
same,binding result,[11],"no binding (tested: extract, conc. not given)"
B7,FITC+ (%),[12],98.3%
same,FITC- (%),[12],1.72%
same,Mean (MFI),[12],100000
same,FITC+ (%),[13],94.8%
same,FITC- (%),[13],5.02%
same,Mean (MFI),[13],99900
same,binding result,[8],"no binding (tested: extract, conc. not given)"
same,binding result,[10],"no binding (tested: extract, conc. not given)"
same,binding result,[11],"no binding (tested: extract, conc. not given)"
B8,binding result,[8],"no binding (tested: extract, conc. not given)"
same,binding result,[9],binds
same,binding result,[10],"no binding (tested: extract, conc. not given)"
same,binding result,[11],"no binding (tested: extract, conc. not given)"
